{
  "source": "patent US20230212319A1",
  "about": "“NOVEL ANTIGEN BINDING DOMAINS AND SYNTHETIC ANTIGEN RECEPTORS INCORPORATING THE SAME” (University of Southern California, priority 2020, published 2023)",
  "molecules": {"B1": {"name": "22116 (protein)", "chain": "MALPVTALLLPLALLLHAARPQVQLVESGGGLVQPGGSLRLSCAASGFTFTNHAMSWVRQAPGKGLELVSSISGNGRTTYYADSVKGRFTISRDISKNTLDLQMNSLRAEDTAVYYCAKDGGETLVDSRGQGTLVTVSSLEIQNPDPAVYQLRDSKSSDKSVCLFTDFDSQTNVSQSKDSDVYITDKCVLDMRSMDFKSNSAVAWSNKSDFACANAFNNSIIPEDTFFPSSDVPCDVKLVEKSFETDTNLNFQNLSVIGFRILLLKVAGFNLLMTLRLWSSRAKRSGSGVKQTLNFDLLKLAGDVESNPGPTSTMALPVTALLLPLALLLHAARPQVQLVESGGGLVQPGGSLRLSCAASGFTFTNHAMSWVRQAPGKGLELVSSISGNGRTTYYADSVKGRFTISRDISKNTLDLQMNSLRAEDTAVYYCAKDGGETLVDSRGQGTLVTVSSLESGGGGSFEQVQLQQPGAELVKPGASVKMSCKASGYAFSSYWINWMKQKPGQGLEWIGQIYPGDGDTNYNGKFKGRATLTADTSSSTAYMQLSSLTSEDSAVYFCARSITTVVGCAMDYWGQGTSVTVSSTREDLKNVFPPEVAVFEPSKAEIAHTQKATLVCLATGFYPDHVELSWWVNGKEVHSGVCTDPQPLKEQPALNDSRYCLSSRLRVSATFWQNPRNHFRCQVQFYGLSENDEWTQDRAKPVTQIVSAEAWGRADCGITSASYHQGVLSATILYEILLGKATLYAVLVSALVLMAMVKRKDSRGRAKRSGSGATNFSLLKQAGDVEENPGPSRGHMTEYKPTVRLATRDDVPRAVRTLAAAFADYPATRHTVDPDRHIERVTELQELFLTRVGLDIGKVWVADDGAAVAVWTTPESVEAGAVFAEIGPRMAELSGSRLAAQQQMEGLLAPHRPKEPAWFLATVGVSPDHQGKGLGSAVVLPGVEAAERAGVPAFLETSAPRNLPFYERLGFTVTADVEVPEGPRTWCMTRKPGA"}, "B2": {"name": "22229 (protein)", "chain": "MALPVTALLLPLALLLHAARPACEVQLLESGGGLIQPGGSLRLSCAASGFTFSSHAMTWVRQAPGKGLEWVSAISGSGDYTHYADSVKGRFTISRDNSKNTVYLQMNSLRAEDSAVYYCAKDEDGGSLLGHRGQGTLVTVSSGTGAIGFLRTAEFDIQMTQSPSSLSASVGDRVTITCKASDHINNWLAWYQQKPGQAPKLLIYGATTLETGVPSRFSGSGSGTDYTLTISSLQPEDFATYYCQQSWNTPWTFGQGTKLEIKRLEDLKNVFPPEVAVFEPSKAEIAHTQKATLVCLATGFYPDHVELSWWVNGKEVHSGVCTDPQPLKEQPALNDSRYCLSSRLRVSATFWQNPRNHFRCQVQFYGLSENDEWTQDRAKPVTQIVSAEAWGRADCGITSASYHQGVLSATILYEILLGKATLYAVLVSALVLMAMVKRKDSRGRAKRSGSGATNFSLLKQAGDVEENPGPTSATMDWIWRILFLVGAATGAHSGPEVQLVESGGGLVQAGGSLRLSCAASGRTFSMGWFRQAPGKEREFVAAITYSGGSPYYADSVKGRFTISRDNAKNTVYLQMNSLKPEDTAVYYCAANPTYGSDWNAENWGQGTQVTVSSGSGGGGSGGGGSGGGGSFEQVQLQQPGAELVKPGASVKMSCKASGYAFSSYWINWMKQKPGQGLEWIGQIYPGDGDTNYNGKFKGRATLTADTSSSTAYMQLSSLTSEDSAVYFCARSITTVVGCAMDYWGQGTSVTVSSTRIQNPDPAVYQLRDSKSSDKSVCLFTDFDSQTNVSQSKDSDVYITDKCVLDMRSMDFKSNSAVAWSNKSDFACANAFNNSIIPEDTFFPSPESSCDVKLVEKSFETDTNLNFQNLSVIGFRILLLKVAGFNLLMTLRLWSSRAKRSGSGVKQTLNFDLLKLAGDVESNPGPSRGHMTEYKPTVRLATRDDVPRAVRTLAAAFADYPATRHTVDPDRHIERVTELQELFLTRVGLDIGKVWVADDGAAVAVWTTPESVEAGAVFAEIGPRMAELSGSRLAAQQQMEGLLAPHRPKEPAWFLATVGVSPDHQGKGLGSAVVLPGVEAAERAGVPAFLETSAPRNLPFYERLGFTVTADVEVPEGPRTWCMTRKPGA"}, "B3": {"name": "22130 (protein)", "chain": "MALPVTALLLPLALLLHAARPACEVQLLESGGGLIQPGGSLRLSCAASGFTFSSHAMTWVRQAPGKGLEWVSAISGSGDYTHYADSVKGRFTISRDNSKNTVYLQMNSLRAEDSAVYYCAKDEDGGSLLGHRGQGTLVTVSSGTGGGGSGGGGSGGGGSEFDIQMTQSPSSLSASVGDRVTITCKASDHINNWLAWYQQKPGQAPKLLIYGATTLETGVPSRFSGSGSGTDYTLTISSLQPEDFATYYCQQSWNTPWTFGQGTKLEIKRLEDLKNVFPPEVAVFEPSKAEIAHTQKATLVCLATGFYPDHVELSWWVNGKEVHSGVCTDPQPLKEQPALNDSRYCLSSRLRVSATFWQNPRNHFRCQVQFYGLSENDEWTQDRAKPVTQIVSAEAWGRADCGITSASYHQGVLSATILYEILLGKATLYAVLVSALVLMAMVKRKDSRGRAKRSGSGATNFSLLKQAGDVEENPGPTSATMDWIWRILFLVGAATGAHSGPQVQLQESGGGLAQAGGSLRLSCAASGRTFSMGWFRQAPGKEREFVAAITYSGGSPYYASSVRGRFTISRDNAKNTVYLQMNSLKPEDTAVYYCAANPTYGSDWNAENWGQGTQVTVSSGSGGGGSGGGGSGGGGSFEQVQLQQPGAELVKPGASVKMSCKASGYAFSSYWINWMKQKPGQGLEWIGQIYPGDGDTNYNGKFKGRATLTADTSSSTAYMQLSSLTSEDSAVYFCARSITTVVGCAMDYWGQGTSVTVSSTRIQNPDPAVYQLRDSKSSDKSVCLFTDFDSQTNVSQSKDSDVYITDKCVLDMRSMDFKSNSAVAWSNKSDFACANAFNNSIIPEDTFFPSSDVPCDVKLVEKSFETDTNLNFQNLSVIGFRILLLKVAGFNLLMTLRLWSSRAKRSGSGVKQTLNFDLLKLAGDVESNPGPSRGHMTEYKPTVRLATRDDVPRAVRTLAAAFADYPATRHTVDPDRHIERVTELQELFLTRVGLDIGKVWVADDGAAVAVWTTPESVEAGAVFAEIGPRMAELSGSRLAAQQQMEGLLAPHRPKEPAWFLATVGVSPDHQGKGLGSAVVLPGVEAAERAGVPAFLETSAPRNLPFYERLGFTVTADVEVPEGPRTWCMTRKPGA"}},
  "format_in_all_cases": "cell-based",
  "key": {"[1]": {"system": "RAJI-CD19-KO cells", "assay": "JNG assay, co-culture with RAJI-CD19-KO cells", "details": "co-culture with Raji-CD19-KO", "outline": "(§1)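 Jurkat-NFAT-GFP (JNG) cells stably expressing SAR constructs via lentiviral transduction and puromycin/blasticidin selection were cocultured with target cells at E:T ~1:2 for ~4–18 h. NFAT-driven GFP was measured by FACS versus parental JNG cells; scores +/- to 5+ denote ~5–50% GFP-positive cells.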"}, "[2]": {"system": "Nalm6 cells", "assay": "JNG assay, co-culture with Nalm6 cells", "details": "co-culture with Nalm6", "outline": "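Scoring uses % GFP+ reporter cells above the parental control, where +/-, +, 2+, 3+, 4+ and 5+ correspond to about 5, 10, 20, 30, 40 and 50%. Effectors were SAR-expressing Jurkat NFAT-GFP cells cocultured with targets (E:T ~1:2, ~4–18 h).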"}, "[3]": {"system": "RAJI cells", "assay": "JNG assay, co-culture with RAJI cells", "details": "JNG cells expressing construct, co-culture with Raji", "outline": "as §1"}, "[4]": {"system": "RS;411", "assay": "JNG assay, co-culture with RS;411 cells", "details": "co-culture with RS411", "outline": "as §1"}, "[5]": {"system": "L363 cells", "assay": "JNG assay, co-culture with L363 cells", "details": "co-culture with L363", "outline": "as §1"}},
  "data": [
    {"molecule": "B1", "values": [
      {"measurement": "NFAT-GFP ASSAY: Raji-CD19-KO", "setting": "[1]", "value": "2+ (refer to approximately 5%, 10%, 20%, 30%, 40% and 50% GFP positive cells)"},
      {"measurement": "NFAT-GFP ASSAY: Nalm6", "setting": "[2]", "value": "3+ (refer to approximately 5%, 10%, 20%, 30%, 40% and 50% GFP positive cells)"},
      {"measurement": "NFAT-GFP ASSAY: Raji", "setting": "[3]", "value": "3+ (refer to approximately 5%, 10%, 20%, 30%, 40% and 50% GFP positive cells)"},
      {"measurement": "NFAT-GFP ASSAY: RS411", "setting": "[4]", "value": "2+ (refer to approximately 5%, 10%, 20%, 30%, 40% and 50% GFP positive cells)"}
    ]},
    {"molecule": "B2", "values": [
      {"measurement": "NFAT-GFP ASSAY: Raji-CD19-KO", "setting": "[1]", "value": "5+ (refer to approximately 5%, 10%, 20%, 30%, 40% and 50% GFP positive cells)"},
      {"measurement": "NFAT-GFP ASSAY: Raji", "setting": "[3]", "value": "3+ (refer to approximately 5%, 10%, 20%, 30%, 40% and 50% GFP positive cells)"},
      {"measurement": "NFAT-GFP ASSAY: RS411", "setting": "[4]", "value": "2+ (refer to approximately 5%, 10%, 20%, 30%, 40% and 50% GFP positive cells)"}
    ]},
    {"molecule": "B3", "values": [
      {"measurement": "NFAT-GFP ASSAY: Raji-CD19-KO", "setting": "[1]", "value": "5+ (refer to approximately 5%, 10%, 20%, 30%, 40% and 50% GFP positive cells)"},
      {"measurement": "NFAT-GFP ASSAY: Raji", "setting": "[3]", "value": "4+ (refer to approximately 5%, 10%, 20%, 30%, 40% and 50% GFP positive cells)"},
      {"measurement": "NFAT-GFP ASSAY: L363", "setting": "[5]", "value": "5+ (refer to approximately 5%, 10%, 20%, 30%, 40% and 50% GFP positive cells)"},
      {"measurement": "NFAT-GFP ASSAY: RS411", "setting": "[4]", "value": "4+ (refer to approximately 5%, 10%, 20%, 30%, 40% and 50% GFP positive cells)"}
    ]}
  ]
}
